Values quoted from earlier work as cited in PMC5031454.
pKd: −log10 of the molar value.

Molecular target: Dscam1 Ig1-4 (Drosophila melanogaster) (UniProt Q0E9H9)
Chain of UniProt Q0E9H9 (Q0E9H9 39-421): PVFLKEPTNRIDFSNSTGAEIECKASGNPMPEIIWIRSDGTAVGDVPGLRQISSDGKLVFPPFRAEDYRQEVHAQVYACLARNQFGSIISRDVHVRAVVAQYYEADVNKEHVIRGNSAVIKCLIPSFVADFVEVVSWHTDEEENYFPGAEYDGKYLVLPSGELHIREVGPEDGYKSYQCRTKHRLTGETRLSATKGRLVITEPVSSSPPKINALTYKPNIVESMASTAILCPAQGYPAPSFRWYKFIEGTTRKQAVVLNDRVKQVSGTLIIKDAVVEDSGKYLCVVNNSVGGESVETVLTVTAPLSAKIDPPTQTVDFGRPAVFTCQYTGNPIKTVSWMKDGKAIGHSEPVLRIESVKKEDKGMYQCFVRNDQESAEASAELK

In the case of “Slit-N N-terminal fragment (from UniProt P24014)”, the pKd is given as 7.66.
